The target in this experiment is T1, Albumin from chicken egg (Ovalbumin/OVA) (chicken), P01012.
T1 chain: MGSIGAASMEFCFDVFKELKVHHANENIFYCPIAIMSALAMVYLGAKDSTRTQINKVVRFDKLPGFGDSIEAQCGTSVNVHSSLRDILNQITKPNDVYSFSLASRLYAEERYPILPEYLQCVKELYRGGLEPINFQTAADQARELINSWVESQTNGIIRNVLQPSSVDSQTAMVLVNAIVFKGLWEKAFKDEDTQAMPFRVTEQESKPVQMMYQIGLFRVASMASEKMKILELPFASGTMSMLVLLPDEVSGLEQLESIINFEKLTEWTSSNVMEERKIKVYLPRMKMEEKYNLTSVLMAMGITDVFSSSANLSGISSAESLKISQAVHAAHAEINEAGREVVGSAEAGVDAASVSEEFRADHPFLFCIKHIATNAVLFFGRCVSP
Kind of experiment: native MS. As to conditions: remark: other sources report otherwise.

B1: Albumin from chicken egg (Ovalbumin/OVA), P01012 1-386 (natural protein)
chain: MGSIGAASMEFCFDVFKELKVHHANENIFYCPIAIMSALAMVYLGAKDSTRTQINKVVRFDKLPGFGDSIEAQCGTSVNVHSSLRDILNQITKPNDVYSFSLASRLYAEERYPILPEYLQCVKELYRGGLEPINFQTAADQARELINSWVESQTNGIIRNVLQPSSVDSQTAMVLVNAIVFKGLWEKAFKDEDTQAMPFRVTEQESKPVQMMYQIGLFRVASMASEKMKILELPFASGTMSMLVLLPDEVSGLEQLESIINFEKLTEWTSSNVMEERKIKVYLPRMKMEEKYNLTSVLMAMGITDVFSSSANLSGISSAESLKISQAVHAAHAEINEAGREVVGSAEAGVDAASVSEEFRADHPFLFCIKHIATNAVLFFGRCVSP
The stoichiometry N is the number of molecules, sites or subunits per partner or assembly. In turn, B1 yielded a relative abundance of the dimer of 5 to 8% and a stoichiometry N of 2.

These data come from article doi:10.1101/2023.01.09.523258.
